Series [1] can be described thus: limited in vitro trypsin proteolysis of purified protein. The following applies: glycan lost; control: wild-type mNEU1.
A short description of series [2]: anti-NEU1 immunoblot, Phoenix-A lysates. The note with it: glycan lost; control: wild-type mNEU1. In general terms: A western blot detects proteins with antibodies after separation by electrophoresis.
Series [3] is described as follows: 4-MU-NANA activity, neu1-/- fibroblasts, PPCA cotransduced. The following applies: glycan lost; control: wild-type mNEU1 coexpressed with PPCA.
Series [4] is described as follows: 4-MU-NANA activity, Phoenix-A lysates, PPCA coexpressed. The following applies: glycan lost; control: wild-type mNEU1.
The nature of series [5]: anti-NEU1 immunoblot, transduced NEU1-deficient fibroblasts. The note with it: glycan lost; control: wild-type mNEU1.
Series [6] can be described thus: 4-MU-NANA activity, neu1-/- fibroblasts, endogenous PPCA only. The following applies: glycan lost; control: wild-type mNEU1.

Take murine NEU1 (mNEU1): N180D (mut1): in series [1], the stability_or_folding result is given as “decreases”. The expression_or_secretion entry in series [2] is given as “decreases”.

For the substance murine NEU1 (mNEU1): N337D (mut2), the stability_or_folding result in series [1] is recorded as “no change”. For the same substance, the enzymatic_activity result in series [3] is “no change”. Also, the “enzymatic_activity, percent_of_wt” value in series [4] is on record as “decreases”. Further, the expression_or_secretion result in series [5] was “decreases”; in series [2], “no change”.

murine NEU1 (mNEU1): N346D (mut3): the stability_or_folding result in series [1] is “no change”. The “enzymatic_activity, percent_of_wt” value in series [4] and in series [6] was “decreases” in each case. In addition, the expression_or_secretion entry in series [5] is given as “decreases”; in series [2] it was “no change”.

As for murine NEU1 (mNEU1): N372D (mut4), the stability_or_folding result in series [1] was “no change”. The enzymatic_activity result in series [3] is recorded as “no change”. Besides, the “enzymatic_activity, percent_of_wt” value in series [4] and in series [6] was “no change” throughout. In addition, the expression_or_secretion entry in series [5] and in series [2] was “no change” each time.

Values taken from article PMC2888680.
